Source: IntAct's records for PubMed 12529446

Biological target: gef1_schpo gef1 (UniProt Q09763)
Sequence (Q09763 whole entry): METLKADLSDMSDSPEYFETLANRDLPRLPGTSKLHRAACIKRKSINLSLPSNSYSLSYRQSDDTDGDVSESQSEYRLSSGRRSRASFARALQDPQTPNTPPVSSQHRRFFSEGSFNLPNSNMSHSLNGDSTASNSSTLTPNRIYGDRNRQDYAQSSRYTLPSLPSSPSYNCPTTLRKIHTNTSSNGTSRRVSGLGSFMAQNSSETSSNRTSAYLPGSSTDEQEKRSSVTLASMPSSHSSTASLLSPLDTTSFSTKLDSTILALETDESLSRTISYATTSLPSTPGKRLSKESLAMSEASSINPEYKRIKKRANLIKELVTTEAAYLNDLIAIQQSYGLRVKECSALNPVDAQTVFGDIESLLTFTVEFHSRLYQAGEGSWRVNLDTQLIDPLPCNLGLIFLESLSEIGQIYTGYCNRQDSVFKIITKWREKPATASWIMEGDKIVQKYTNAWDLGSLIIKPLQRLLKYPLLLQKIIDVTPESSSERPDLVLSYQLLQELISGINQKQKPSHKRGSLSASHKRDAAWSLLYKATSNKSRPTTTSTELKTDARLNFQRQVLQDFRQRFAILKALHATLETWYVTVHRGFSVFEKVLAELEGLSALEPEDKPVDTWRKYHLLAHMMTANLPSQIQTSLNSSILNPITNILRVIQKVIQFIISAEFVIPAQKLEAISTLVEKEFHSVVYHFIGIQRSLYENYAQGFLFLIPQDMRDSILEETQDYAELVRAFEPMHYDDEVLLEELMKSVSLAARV

Sequence of Cell division control protein 42 homolog (Schizosaccharomyces pombe (strain ATCC 38366 / 972)), Q01112 T17N (Q01112 whole entry T17N): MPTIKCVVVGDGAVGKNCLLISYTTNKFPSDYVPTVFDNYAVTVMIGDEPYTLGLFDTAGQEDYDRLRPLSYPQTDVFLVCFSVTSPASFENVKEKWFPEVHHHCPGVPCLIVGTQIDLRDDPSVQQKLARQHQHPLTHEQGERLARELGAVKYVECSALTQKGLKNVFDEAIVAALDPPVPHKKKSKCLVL
Sequence of Cell division control protein 42 homolog (Schizosaccharomyces pombe (strain ATCC 38366 / 972)), Q01112 D118A (Q01112 whole entry D118A): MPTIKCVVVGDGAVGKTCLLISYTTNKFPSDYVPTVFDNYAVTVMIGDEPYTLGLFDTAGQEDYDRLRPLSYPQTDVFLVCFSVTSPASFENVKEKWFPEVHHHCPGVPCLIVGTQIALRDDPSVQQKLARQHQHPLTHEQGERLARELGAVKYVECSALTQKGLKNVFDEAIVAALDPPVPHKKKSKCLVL

Substance: Cell division control protein 42 homolog (Schizosaccharomyces pombe (strain ATCC 38366 / 972)), Q01112 D118A
- effect of a mutation on the interaction: increasing interaction

Substance: Cell division control protein 42 homolog (Schizosaccharomyces pombe (strain ATCC 38366 / 972)), Q01112 T17N
- effect of a mutation on the interaction: increasing interaction
